Source: the supplement of paper PMC6755084

System: F1*sub RNA substrate (template-directed ligation)
Assay: fraction ligated after 30 min (ligated reads / total reads); higher = more ligase activity; sequences stand for … in GAGACCGCAACTGAAAAGTTGT…AGTTCTGCACGTAGAAGCAAAAGGC
Details: 42 °C
How it was run: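 Oligo-pool templates of ligase ribozyme variants were PCR-amplified, T7-transcribed and gel-purified. Ligated and unligated bands were gel-separated, reverse transcribed with barcoded primers, and MiSeq-sequenced; core bases were filtered at quality ≥20. Fraction ligated per variant was ligated reads over total reads.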

Row | Sequence | fraction ligated
1 | TATCACTTGTCGTAAGACTTTGATGGGTTGA [3d2108] | 0.76
2 | TATCACTTGTCGTAAGACTTTGGAGGGTTGA [3d2110] | 0.0282
3 | TATCACTTGTCGTAAGACTTTGGATGGGTTA [3d2112] | 0.792
4 | TATCACTTGTCGTAAGACTTTGGATGGGTTG [3d2113] | 0.796
5 | TATCACTTGTCGTAAGACTTTGGATGGGTTGA [2d244] | 0.821
6 | TATCACTTGTCGTAAGACTTTGGATGGTTGA [3d2111] | 0.133
7 | TATCACTTGTCGTAAGACTTTGGTGGGTTGA [3d2109] | 0.0656
8 | TATCACTTGTCGTAAGATTTGGATGGGTTGA [3d2106] | 0.815
9 | TATCACTTGTCGTAAGCACTGGATGGGTTGA [3d2128] | 0.771
10 | TATCACTTGTCGTAAGCACTTGATGGGTTGA [3d2129] | 0.743
11 | TATCACTTGTCGTAAGCACTTGGAGGGTTGA [3d2131] | 0.072
12 | TATCACTTGTCGTAAGCACTTGGATGGGTTA [3d2133] | 0.565
13 | TATCACTTGTCGTAAGCACTTGGATGGGTTG [3d2134] | 0.76
14 | TATCACTTGTCGTAAGCACTTGGATGGGTTGA [2d247] | 0.756
15 | TATCACTTGTCGTAAGCACTTGGATGGTTGA [3d2132] | 0.108
16 | TATCACTTGTCGTAAGCACTTGGTGGGTTGA [3d2130] | 0.0887
17 | TATCACTTGTCGTAAGCACTTTATGGGTTGA [3d2135] | 0.134
18 | TATCACTTGTCGTAAGCACTTTGAGGGTTGA [3d2137] | 0.086
19 | TATCACTTGTCGTAAGCACTTTGATGGGTTA [3d2139] | 0.124
20 | TATCACTTGTCGTAAGCACTTTGATGGGTTG [3d2140] | 0.677
21 | TATCACTTGTCGTAAGCACTTTGATGGGTTGA [2d248] | 0.751
22 | TATCACTTGTCGTAAGCACTTTGATGGTTGA [3d2138] | 0.157
23 | TATCACTTGTCGTAAGCACTTTGGAGGGTTA [3d2146] | 0.134

Row | Sequence | fraction ligated
24 | TATCACTTGTCGTAAGCACTTTGGAGGGTTG [3d2147] | 0.116
25 | TATCACTTGTCGTAAGCACTTTGGAGGGTTGA [2d250] | 0.157
26 | TATCACTTGTCGTAAGCACTTTGGAGGTTGA [3d2145] | 0.143
27 | TATCACTTGTCGTAAGCACTTTGGATGGGTT [3d2150] | 0.534
28 | TATCACTTGTCGTAAGCACTTTGGATGGGTTA [2d252] | 0.737
29 | TATCACTTGTCGTAAGCACTTTGGATGGGTTG [2d253] | 0.771
30 | TATCACTTGTCGTAAGCACTTTGGATGGTTA [3d2148] | 0.153
31 | TATCACTTGTCGTAAGCACTTTGGATGGTTG [3d2149] | 0.17
32 | TATCACTTGTCGTAAGCACTTTGGATGGTTGA [2d251] | 0.216
33 | TATCACTTGTCGTAAGCACTTTGGGGGTTGA [3d2141] | 0.129
34 | TATCACTTGTCGTAAGCACTTTGGTGGGTTA [3d2143] | 0.0888
35 | TATCACTTGTCGTAAGCACTTTGGTGGGTTG [3d2144] | 0.0518
36 | TATCACTTGTCGTAAGCACTTTGGTGGGTTGA [2d249] | 0.14
37 | TATCACTTGTCGTAAGCACTTTGGTGGTTGA [3d2142] | 0.118
38 | TATCACTTGTCGTAAGCACTTTGTGGGTTGA [3d2136] | 0.0369
39 | TATCACTTGTCGTAAGCATTGGATGGGTTGA [3d2121] | 0.756
40 | TATCACTTGTCGTAAGCATTTGATGGGTTGA [3d2122] | 0.408
41 | TATCACTTGTCGTAAGCATTTGGAGGGTTGA [3d2124] | 0.0316
42 | TATCACTTGTCGTAAGCATTTGGATGGGTTA [3d2126] | 0.784
43 | TATCACTTGTCGTAAGCATTTGGATGGGTTG [3d2127] | 0.833
44 | TATCACTTGTCGTAAGCATTTGGATGGGTTGA [2d246] | 0.849
45 | TATCACTTGTCGTAAGCATTTGGATGGTTGA [3d2125] | 0.17
46 | TATCACTTGTCGTAAGCATTTGGTGGGTTGA [3d2123] | 0.0465

Row | Sequence | fraction ligated
47 | TATCACTTGTCGTAAGCCTTGGATGGGTTGA [3d2114] | 0.778
48 | TATCACTTGTCGTAAGCCTTTGATGGGTTGA [3d2115] | 0.718
49 | TATCACTTGTCGTAAGCCTTTGGAGGGTTGA [3d2117] | 0.252
50 | TATCACTTGTCGTAAGCCTTTGGATGGGTTA [3d2119] | 0.79
51 | TATCACTTGTCGTAAGCCTTTGGATGGGTTG [3d2120] | 0.782
52 | TATCACTTGTCGTAAGCCTTTGGATGGGTTGA [2d245] | 0.781
53 | TATCACTTGTCGTAAGCCTTTGGATGGTTGA [3d2118] | 0.364
54 | TATCACTTGTCGTAAGCCTTTGGTGGGTTGA [3d2116] | 0.243
55 | TATCACTTGTCGTAAGCTTTGGATGGGTTGA [3d2105] | 0.759
56 | TATCACTTGTCGTACACTTTGGATGGGTTGA [3d1981] | 0.797
57 | TATCACTTGTCGTAGAACTTGGATGGGTTGA [3d2014] | 0.845
58 | TATCACTTGTCGTAGAACTTTGATGGGTTGA [3d2015] | 0.848
59 | TATCACTTGTCGTAGAACTTTGGAGGGTTGA [3d2017] | 0.119
60 | TATCACTTGTCGTAGAACTTTGGATGGGTTA [3d2019] | 0.854
61 | TATCACTTGTCGTAGAACTTTGGATGGGTTG [3d2020] | 0.854
62 | TATCACTTGTCGTAGAACTTTGGATGGGTTGA [2d224] | 0.864
63 | TATCACTTGTCGTAGAACTTTGGATGGTTGA [3d2018] | 0.206
64 | TATCACTTGTCGTAGAACTTTGGTGGGTTGA [3d2016] | 0.138
65 | TATCACTTGTCGTAGAATTTGGATGGGTTGA [3d2013] | 0.832
66 | TATCACTTGTCGTAGACACTGGATGGGTTGA [3d2035] | 0.778
67 | TATCACTTGTCGTAGACACTTGATGGGTTGA [3d2036] | 0.657
68 | TATCACTTGTCGTAGACACTTGGAGGGTTGA [3d2038] | 0.0635
69 | TATCACTTGTCGTAGACACTTGGATGGGTTA [3d2040] | 0.757

Row | Sequence | fraction ligated
70 | TATCACTTGTCGTAGACACTTGGATGGGTTG [3d2041] | 0.782
71 | TATCACTTGTCGTAGACACTTGGATGGGTTGA [2d227] | 0.803
72 | TATCACTTGTCGTAGACACTTGGATGGTTGA [3d2039] | 0.095
73 | TATCACTTGTCGTAGACACTTGGTGGGTTGA [3d2037] | 0.105
74 | TATCACTTGTCGTAGACACTTTATGGGTTGA [3d2042] | 0.128
75 | TATCACTTGTCGTAGACACTTTGAGGGTTGA [3d2044] | 0.0374
76 | TATCACTTGTCGTAGACACTTTGATGGGTTA [3d2046] | 0.156
77 | TATCACTTGTCGTAGACACTTTGATGGGTTG [3d2047] | 0.754
78 | TATCACTTGTCGTAGACACTTTGATGGGTTGA [2d228] | 0.789
79 | TATCACTTGTCGTAGACACTTTGATGGTTGA [3d2045] | 0.0405
80 | TATCACTTGTCGTAGACACTTTGGAGGGTTA [3d2053] | 0.0985
81 | TATCACTTGTCGTAGACACTTTGGAGGGTTG [3d2054] | 0.0621
82 | TATCACTTGTCGTAGACACTTTGGAGGGTTGA [2d230] | 0.167
83 | TATCACTTGTCGTAGACACTTTGGAGGTTGA [3d2052] | 0.072
84 | TATCACTTGTCGTAGACACTTTGGATGGGTT [3d2057] | 0.819
85 | TATCACTTGTCGTAGACACTTTGGATGGGTTA [2d232] | 0.825
86 | TATCACTTGTCGTAGACACTTTGGATGGGTTG [2d233] | 0.843
87 | TATCACTTGTCGTAGACACTTTGGATGGTTA [3d2055] | 0.406
88 | TATCACTTGTCGTAGACACTTTGGATGGTTG [3d2056] | 0.452
89 | TATCACTTGTCGTAGACACTTTGGATGGTTGA [2d231] | 0.678
90 | TATCACTTGTCGTAGACACTTTGGGGGTTGA [3d2048] | 0.0891
91 | TATCACTTGTCGTAGACACTTTGGTGGGTTA [3d2050] | 0.0674
92 | TATCACTTGTCGTAGACACTTTGGTGGGTTG [3d2051] | 0.101

Row | Sequence | fraction ligated
93 | TATCACTTGTCGTAGACACTTTGGTGGGTTGA [2d229] | 0.287
94 | TATCACTTGTCGTAGACACTTTGGTGGTTGA [3d2049] | 0.0676
95 | TATCACTTGTCGTAGACACTTTGTGGGTTGA [3d2043] | 0.0334
96 | TATCACTTGTCGTAGACATTGGATGGGTTGA [3d2028] | 0.815
97 | TATCACTTGTCGTAGACATTTGATGGGTTGA [3d2029] | 0.309
98 | TATCACTTGTCGTAGACATTTGGAGGGTTGA [3d2031] | 0.0197
99 | TATCACTTGTCGTAGACATTTGGATGGGTTA [3d2033] | 0.799
100 | TATCACTTGTCGTAGACATTTGGATGGGTTG [3d2034] | 0.815
101 | TATCACTTGTCGTAGACATTTGGATGGGTTGA [2d226] | 0.842
102 | TATCACTTGTCGTAGACATTTGGATGGTTGA [3d2032] | 0.147
103 | TATCACTTGTCGTAGACATTTGGTGGGTTGA [3d2030] | 0.0449
104 | TATCACTTGTCGTAGACCTTGGATGGGTTGA [3d2021] | 0.79
105 | TATCACTTGTCGTAGACCTTTGATGGGTTGA [3d2022] | 0.759
106 | TATCACTTGTCGTAGACCTTTGGAGGGTTGA [3d2024] | 0.211
107 | TATCACTTGTCGTAGACCTTTGGATGGGTTA [3d2026] | 0.798
108 | TATCACTTGTCGTAGACCTTTGGATGGGTTG [3d2027] | 0.777
109 | TATCACTTGTCGTAGACCTTTGGATGGGTTGA [2d225] | 0.814
110 | TATCACTTGTCGTAGACCTTTGGATGGTTGA [3d2025] | 0.344
111 | TATCACTTGTCGTAGACCTTTGGTGGGTTGA [3d2023] | 0.234
